In patent US20140087995A1 (published 2014):
Numbered stars: 1 amine (or outer) side, 2 acyl side, 3 side chain; on linkers, the order of the positions; unused ones are H or OH. Bridge positions count the residues as written; N and C are the ends. Side chains are listed from the residue outwards. Ends that are not written are not given here. * marks the point of attachment. C20 diacid = O=C(O)CCCCCCCCCCCCCCCCCCC(=O)*; γGlu = O=C(O)[C@H](CCC(=O)[*:2])N[*:1]

T1: rat calcitonin receptor (rat, UniProt P32214 25-516)
T1 construct: whole, on cells; Used as membranes prepared from BHK tk'ts 13 cells transiently transfected with the rat calcitonin receptor (Assay VIII); also called rCTR; rat calcitonin (a) receptor
T1 sequence (looked up): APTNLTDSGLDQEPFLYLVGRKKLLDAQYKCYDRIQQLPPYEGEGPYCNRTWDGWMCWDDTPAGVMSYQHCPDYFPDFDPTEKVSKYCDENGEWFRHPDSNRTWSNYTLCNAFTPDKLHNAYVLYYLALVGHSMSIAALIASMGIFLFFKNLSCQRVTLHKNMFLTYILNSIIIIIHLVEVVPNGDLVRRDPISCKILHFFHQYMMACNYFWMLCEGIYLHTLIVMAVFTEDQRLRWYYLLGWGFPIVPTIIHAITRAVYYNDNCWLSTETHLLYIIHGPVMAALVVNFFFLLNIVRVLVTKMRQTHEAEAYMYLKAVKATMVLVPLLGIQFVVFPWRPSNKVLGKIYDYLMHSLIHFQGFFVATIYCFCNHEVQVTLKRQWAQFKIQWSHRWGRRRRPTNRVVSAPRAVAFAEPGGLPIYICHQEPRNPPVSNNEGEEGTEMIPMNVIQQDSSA

T2: rat amylin receptor (rat calcitonin receptor + rat RAMP 3) (rat, UniProt P32214 25-516; Q9JJ73 23-147)
T2 construct: whole, on cells; Used as membranes prepared from BHK tk'ts 13 cells transiently transfected with rat calcitonin receptor and rat RAMP 3 (Assay VI); also called rAmylin-R; rat amylin 3(a) receptor
T2 sequence (looked up) 1: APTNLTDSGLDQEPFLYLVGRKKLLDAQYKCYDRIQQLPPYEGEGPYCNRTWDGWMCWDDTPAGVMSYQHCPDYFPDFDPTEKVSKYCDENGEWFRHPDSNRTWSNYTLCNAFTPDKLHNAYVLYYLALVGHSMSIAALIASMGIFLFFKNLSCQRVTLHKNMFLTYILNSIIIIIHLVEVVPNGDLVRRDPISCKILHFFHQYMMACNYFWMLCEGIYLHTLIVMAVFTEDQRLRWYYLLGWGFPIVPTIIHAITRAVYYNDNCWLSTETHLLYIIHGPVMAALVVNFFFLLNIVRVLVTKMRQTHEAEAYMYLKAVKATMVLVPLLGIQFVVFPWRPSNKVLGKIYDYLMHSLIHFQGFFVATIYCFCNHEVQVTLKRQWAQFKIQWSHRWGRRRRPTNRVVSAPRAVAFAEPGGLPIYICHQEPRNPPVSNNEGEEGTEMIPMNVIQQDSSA
T2 sequence (looked up) 2: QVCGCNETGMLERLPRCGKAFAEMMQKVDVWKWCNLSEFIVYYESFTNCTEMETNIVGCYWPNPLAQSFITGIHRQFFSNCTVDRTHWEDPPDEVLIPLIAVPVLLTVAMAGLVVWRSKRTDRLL

T3: human calcitonin receptor (human, UniProt P30988 25-474)
T3 construct: whole, on cells; Used as membranes prepared from a BHK tk'ts 13 cell line stably transfected with the human calcitonin receptor (Assay VII); also called hCTR; hCT
T3 sequence (looked up): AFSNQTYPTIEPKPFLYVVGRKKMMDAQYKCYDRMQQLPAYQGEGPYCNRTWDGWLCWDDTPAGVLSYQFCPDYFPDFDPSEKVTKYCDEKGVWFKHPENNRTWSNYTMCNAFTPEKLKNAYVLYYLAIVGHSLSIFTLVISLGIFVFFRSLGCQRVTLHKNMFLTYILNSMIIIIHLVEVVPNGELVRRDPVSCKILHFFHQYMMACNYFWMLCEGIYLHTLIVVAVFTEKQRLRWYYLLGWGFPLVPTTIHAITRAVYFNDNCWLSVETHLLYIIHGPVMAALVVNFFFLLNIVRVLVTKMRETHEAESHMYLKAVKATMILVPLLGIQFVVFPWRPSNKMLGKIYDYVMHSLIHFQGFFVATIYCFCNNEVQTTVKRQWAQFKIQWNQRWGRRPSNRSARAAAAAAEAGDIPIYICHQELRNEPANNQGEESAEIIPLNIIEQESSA


Tests used:
rat calcitonin receptor [1] = target: T1, rat calcitonin receptor; test: IC50 on rat CTR divided by IC50 on rat amylin receptor (Assays VIII/VI)
rat calcitonin receptor [2] = target: T1, rat calcitonin receptor; test: SPA competition with 125I-calcitonin, membranes of BHK cells with rat CTR (Assay VIII)
[3] = target: T2, rat amylin receptor (rat calcitonin …); test: SPA competition with 125I-rat amylin, membranes of BHK cells with rat CTR + rat RAMP3 (Assay VI)
[4] = target: T3, human calcitonin receptor; test: IC50 on human CTR divided by IC50 on human amylin receptor (Assays VII/V)
Method in brief: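 Scintillation proximity competition binding on cell membranes at 35 ng/μL with SPA beads, in 50 mM Hepes pH 7.4, 1 mM CaCl2, 5 mM MgCl₂, 0.1% OA, 0.02% Tween20. Incubated 120 min at 25° C with shaking. IC₅₀ from one-site competition fit.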

| Ratio rCT/rAmylin binding (rat calcitonin receptor [1]) | IC50 (rat calcitonin receptor [2]) [nM] | IC50 [3] [nM] | Ratio hCT/hAmylin binding [4] | Binder |
| --- | --- | --- | --- | --- |
| 21.5 | 35.5 | 1.65 | 46.1 | K([γGlu-C20 diacid])CNTATCATQRLANFLRHSSPNFGAIPSSTNVGRNTY-NH2 (disulfide 2-7; N-terminus assumed; SMILES CC[C@H](C)[C@H](NC(=O)[C@H](C)NC(=O)CNC(=O)[C@H](Cc1ccccc1)NC(=O)[C@H](CC(N)=O)NC(=O)[C@@H]1CCCN1C(=O)[C@H](CO)NC(=O)[C@H](CO)NC(=O)[C@H](Cc1c[nH]cn1)NC(=O)[C@H](CCCNC(=N)N)NC(=O)[C@H](CC(C)C)NC(=O)[C@H](Cc1ccccc1)NC(=O)[C@H](CC(N)=O)NC(=O)[C@H](C)NC(=O)[C@H](CC(C)C)NC(=O)[C@H](CCCNC(=N)N)NC(=O)[C@H](CCC(N)=O)NC(=O)[C@@H](NC(=O)[C@H](C)NC(=O)[C@@H]1CSSC[C@H](NC(=O)[C@@H](N)CCCCNC(=O)CC[C@H](NC(=O)CCCCCCCCCCCCCCCCCCC(=O)O)C(=O)O)C(=O)N[C@@H](CC(N)=O)C(=O)N[C@@H]([C@@H](C)O)C(=O)N[C@@H](C)C(=O)N[C@@H]([C@@H](C)O)C(=O)N1)[C@@H](C)O)C(=O)N1CCC[C@H]1C(=O)N[C@@H](CO)C(=O)N[C@@H](CO)C(=O)N[C@H](C(=O)N[C@@H](CC(N)=O)C(=O)N[C@H](C(=O)NCC(=O)N[C@@H](CCCNC(=N)N)C(=O)N[C@@H](CC(N)=O)C(=O)N[C@H](C(=O)N[C@@H](Cc1ccc(O)cc1)C(N)=O)[C@@H](C)O)C(C)C)[C@@H](C)O, Analogue of human amylin; also called compound 79) [N^ε1-[(4S)-4-carboxy-4-(19-carboxynonadecanoylamino)butanoyl]-[Arg17,Pro21,Pro27,Arg34]-h-amylin] |
| 119 | 62 | 0.523 | 37.5 | K([γGlu-C20 diacid])CNTATCATQRLAEFLRHSSPNFGAIPSSTNVGSRTY-NH2 (disulfide 2-7; N-terminus assumed; SMILES CC[C@H](C)[C@H](NC(=O)[C@H](C)NC(=O)CNC(=O)[C@H](Cc1ccccc1)NC(=O)[C@H](CC(N)=O)NC(=O)[C@@H]1CCCN1C(=O)[C@H](CO)NC(=O)[C@H](CO)NC(=O)[C@H](Cc1c[nH]cn1)NC(=O)[C@H](CCCNC(=N)N)NC(=O)[C@H](CC(C)C)NC(=O)[C@H](Cc1ccccc1)NC(=O)[C@H](CCC(=O)O)NC(=O)[C@H](C)NC(=O)[C@H](CC(C)C)NC(=O)[C@H](CCCNC(=N)N)NC(=O)[C@H](CCC(N)=O)NC(=O)[C@@H](NC(=O)[C@H](C)NC(=O)[C@@H]1CSSC[C@H](NC(=O)[C@@H](N)CCCCNC(=O)CC[C@H](NC(=O)CCCCCCCCCCCCCCCCCCC(=O)O)C(=O)O)C(=O)N[C@@H](CC(N)=O)C(=O)N[C@@H]([C@@H](C)O)C(=O)N[C@@H](C)C(=O)N[C@@H]([C@@H](C)O)C(=O)N1)[C@@H](C)O)C(=O)N1CCC[C@H]1C(=O)N[C@@H](CO)C(=O)N[C@@H](CO)C(=O)N[C@H](C(=O)N[C@@H](CC(N)=O)C(=O)N[C@H](C(=O)NCC(=O)N[C@@H](CO)C(=O)N[C@@H](CCCNC(=N)N)C(=O)N[C@H](C(=O)N[C@@H](Cc1ccc(O)cc1)C(N)=O)[C@@H](C)O)C(C)C)[C@@H](C)O, Analogue of human amylin; also called compound 51) |
| 122 | 26.3 | 0.215 | 45.2 | K([γGlu-C20 diacid])CNTATCATQRLANFLRHSSPNFGAIPSSTNVGSHTY-NH2 (disulfide 2-7; N-terminus assumed; SMILES CC[C@H](C)[C@H](NC(=O)[C@H](C)NC(=O)CNC(=O)[C@H](Cc1ccccc1)NC(=O)[C@H](CC(N)=O)NC(=O)[C@@H]1CCCN1C(=O)[C@H](CO)NC(=O)[C@H](CO)NC(=O)[C@H](Cc1c[nH]cn1)NC(=O)[C@H](CCCNC(=N)N)NC(=O)[C@H](CC(C)C)NC(=O)[C@H](Cc1ccccc1)NC(=O)[C@H](CC(N)=O)NC(=O)[C@H](C)NC(=O)[C@H](CC(C)C)NC(=O)[C@H](CCCNC(=N)N)NC(=O)[C@H](CCC(N)=O)NC(=O)[C@@H](NC(=O)[C@H](C)NC(=O)[C@@H]1CSSC[C@H](NC(=O)[C@@H](N)CCCCNC(=O)CC[C@H](NC(=O)CCCCCCCCCCCCCCCCCCC(=O)O)C(=O)O)C(=O)N[C@@H](CC(N)=O)C(=O)N[C@@H]([C@@H](C)O)C(=O)N[C@@H](C)C(=O)N[C@@H]([C@@H](C)O)C(=O)N1)[C@@H](C)O)C(=O)N1CCC[C@H]1C(=O)N[C@@H](CO)C(=O)N[C@@H](CO)C(=O)N[C@H](C(=O)N[C@@H](CC(N)=O)C(=O)N[C@H](C(=O)NCC(=O)N[C@@H](CO)C(=O)N[C@@H](Cc1c[nH]cn1)C(=O)N[C@H](C(=O)N[C@@H](Cc1ccc(O)cc1)C(N)=O)[C@@H](C)O)C(C)C)[C@@H](C)O, Analogue of human amylin; also called compound 60) [N^ε1-[(4S)-4-carboxy-4-(19-carboxynonadecanoylamino)butanoyl]-[Arg17,Pro21,Pro27,His35]-h-amylin] |
| 137 | 205 | 1.5 | 118 | K([γGlu-C20 diacid])CNTATCATQRLANFLRHSSPNFGAIPSSTNVGHNTY-NH2 (disulfide 2-7; N-terminus assumed; SMILES CC[C@H](C)[C@H](NC(=O)[C@H](C)NC(=O)CNC(=O)[C@H](Cc1ccccc1)NC(=O)[C@H](CC(N)=O)NC(=O)[C@@H]1CCCN1C(=O)[C@H](CO)NC(=O)[C@H](CO)NC(=O)[C@H](Cc1c[nH]cn1)NC(=O)[C@H](CCCNC(=N)N)NC(=O)[C@H](CC(C)C)NC(=O)[C@H](Cc1ccccc1)NC(=O)[C@H](CC(N)=O)NC(=O)[C@H](C)NC(=O)[C@H](CC(C)C)NC(=O)[C@H](CCCNC(=N)N)NC(=O)[C@H](CCC(N)=O)NC(=O)[C@@H](NC(=O)[C@H](C)NC(=O)[C@@H]1CSSC[C@H](NC(=O)[C@@H](N)CCCCNC(=O)CC[C@H](NC(=O)CCCCCCCCCCCCCCCCCCC(=O)O)C(=O)O)C(=O)N[C@@H](CC(N)=O)C(=O)N[C@@H]([C@@H](C)O)C(=O)N[C@@H](C)C(=O)N[C@@H]([C@@H](C)O)C(=O)N1)[C@@H](C)O)C(=O)N1CCC[C@H]1C(=O)N[C@@H](CO)C(=O)N[C@@H](CO)C(=O)N[C@H](C(=O)N[C@@H](CC(N)=O)C(=O)N[C@H](C(=O)NCC(=O)N[C@@H](Cc1c[nH]cn1)C(=O)N[C@@H](CC(N)=O)C(=O)N[C@H](C(=O)N[C@@H](Cc1ccc(O)cc1)C(N)=O)[C@@H](C)O)C(C)C)[C@@H](C)O, Analogue of human amylin; also called compound 77) [N^ε1-[(4S)-4-carboxy-4-(19-carboxynonadecanoylamino)butanoyl]-[Arg17,Pro21,Pro27,His34]-h-amylin] |
